Protease stability score data for 47 sequences are collected here from the NTF2 design screens of Basanta et al. (2020).

A short description of the data set: protease stability score; higher = more stable; yeast display proteolysis, trypsin and chymotrypsin.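 Further: relative to predicted unfolded state with 0 unfolded-like and 1 meaning tenfold more protease.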
Take “DHNKEAADHILHLLRQSWRTGDEEIFQRLIDPNVKLQVGDKQFHGREEVTRWIQLYLLRFKGITIHDIEVKEVRTYDGRVEAREIHHNHVNGQDHSLDVHLYIVKVNGQWRLESMHVN”: the protease stability score stood at 1.77.
The result for “DHNKELWERIAEWLIRLQETGNEEELMKNMDPHTRLLVNGVTAHGRDTVTHYYREFLKELGVDVLELKRVHVQGEKVENDGQLHYNGKTHHSRINFFVINGRIHHIELHFE” reads 0.745.
The result for “DHQEEEAKEFTELLMRNLFTGDEDSLQEMLDPHVRIEVDIGDKHRHHHGREEISHFLVRLQHELGVDHIRLSHIEVFNGRAEVHIESYIGNKRSENVFVVTKFNGVWRVQRIIIRVE” reads 1.2.
With “DHQEESRSKFLNDILRIQRTGDFEKIYENVDPDVRIHIGDKEWHGREQATKVLTEWRVEHFDLKSMHIQGDKVHIHGHMIYNINGQERRSDIEIVLLKFNGRWFIHSMRID” the figure was 1.67.
Take “DHQEHIIKVSLEILLESARTGDERSLERLFDPNVRIINENEERHGREALEILLKRIDHIHHLNIRDTRIQGDFLITEVHVRINVNGVHIQNDMVLYAWKVNGRWHIRSIEFK”: the protease stability score was 1.39.
On to “DHQEKRTTEANEMFREAIETGDEKTLTRLVDPNVKIIVGDKRYHGREWFLHLMLHEILHLRVRIHTEDYRVVDGRIEFITHLEIEIGDKTVRRETFVFVDKINGRWLYQSFQDG”, for which the protease stability score is 0.773.
With “DHQERHLREFAHEVEEAWHTGDWKDMFRLFDPNTRVDFHFENHDLHLHGRESMVRFIRDFLDKFKNIRLQLTSRDRQGDKVHLTEEFHINGRIMVIHVNFDIVNGKWKRLELDFIDT” the figure was 1.25; with “DHQRDLLKEARERLLHSIETGDEELWRRLFDPETLLIAENHSSHGREARHDWKKRFDVIDHLEIRTRDVDMIGDKIYVEGKLDYITKYDGVTRNYTNTVHFIATKINGRWVIESVRFE”, 1.09.
With “DHRDEVFEELVRLIIHFLETGDWKSLEELADPNVRVTVFYNGRQDNNIGRKQWAEAWERLLHLLGIKHHHMHRYHIQGDKIHIIMNFVVNGQEFTVHIDITVFNGRMKSSRIHVE” the figure was 1.27.
The result for “DHRDRYAEEVAHRLLKLRHTGDEEIYHEFADPNDRLIIWIGDKSIHSHGRSLVVQVLRRLHEHWRLEDMFIHDEKLVGEKSNMDIHVVGNINGKRMETTEKFTVRVINGRLHTLEIHLD” reads 0.474; that for “DHREEEQKRLTEEFITALKTGDEERWKELLDPNVKMHINGKDVVGREIAAKDLLDHWKNLGIKHIITHRIELQGEKVRIDTEERFNGRSVKTTMIIIVINGRLESFEFHVH”, 0.653.
As for “DHREEESKRYLDDYSRAVTTGDEDRLTELLDPNTKLNYNGQEYHGMEKYKEVLHKILTEIRFESHHVETFRVVGNKLQLDTHIKGHINGKHIRLETHVDIVKINGRWLIDSVRFQ”, the protease stability score stood at 0.29.
The result for “DHREEHDHEISELMREALLTGDEQLISHLADPNVRFEVFVGDKVIRWVGRESMMEAFERWVREIRIEDLKVKHVDIFNGRVDVVTTLHVEFDGRKHDLETRLIFEVVDGKVKHLQVHHH” reads 1.36; that for “DHREELLHRIYELWEMVQTTGDFEKLTDLLDPDVYVNINGRNLIGRELRIRFMREIRMEIKHYKHERFHFQGDKAHIHGRLDREINIGDKHHREDITIDVHLFVIDGVIRSFEIRLI”, 1.33.
With “DHREHRSHRIAEWILRNLVTGNEDEISKLLDPDARVIINGQEVIGREEINRMLRHVFNEIRIHDIEIRDLEIQGEFAFVDTRLDGEFDGRRIKQKSELRIVVINGRVRELEIRIH” the figure was 1.52; with “DHREKELEKMARIFIHNLVTGDWRSLEKLADPDAKSEVIIGDKHIEHVGRHEVWKMLFEIRWEQVEVHDIRIYNGRVEIDGHMKGDIDGRRIETDTKIRLTIVNGVVQTFHMEIR”, 2.23.
With “DHREKEVHFMAKWIVEIFQTGDEDMWRHLADPDVRLDIVQGEKRDNNVGREVSEKTLKELRHHWGLERVEVRVDHIDHQGDKARVDGTVNINGVHFKTEIVIIVVDGRFKRVKYIIG” the figure was 1.39; with “DHRESLRDDMEELLLEVIHTGDWHNYLKLLDPNARLVVGDKEYMGRERVLHWFKEKLDKIPGAKIELEDKREIGNKVELDFDMHVGDKSLRLHIDLRKVNGRWLIEHIEIR”, 1.47.
“DHTEHDARLVMEIWLRILLTGDWETLEKMLDPHVRLQINIGDKRHTHHGREDFLKRLYDLIRELGVDHWTLDEKRVQGNKTRARVTMYVGDKSYDVEIILVAVNGRIREVTIEIH” gave a protease stability score of 2.08.
With “DHTHEAVEHLWKLLLHAIATGDFRILSHLLDPNVRIIFNGRTLVGRQSLEILLKRFDHEKIEEVRLRSTRIQGNFVDLDTEIIMVLHYDGKEYRIHTETHVHVVKVDGRWLIEELRID” the figure was 2.62; with “DHTKKMAEEALRDFWRDFRTGDEDSLNKMADPNVRILIGDKEVVGRERMVELFREVLKKYKNARVITDIEDLDDQGNWVHSDVRFHLHVGDKTVDIEREIVMRKVNGRWYIETHVVK”, 0.397.
With “DHVDEETEKMTNEITKALLTGDEDRLLELADPHVRVIVHVGDKTIHLVGRELMVEEYRRWVKEAGFDKVHHEKKHSDFVDGRAEVHSKVDVGDKHVEYRIIITKVNGKWVIKSIIIIVR” the figure was 2.15.
The result for “DHVEEDARTRLKLFLTHWLTGDEHSTNELFDPNVRIDVNGKIIVGRHVLSEEWSRLGIKHSILHIDHIHIDEDEIHIDGILRLIFENHVLDLRVNLHAEKYDGRWHSSEVQVK” reads 1.25.
Regarding “DHVEEEAEEFVRNFIHNMRTGNWKYMEELLDPNVRLRYGDKDHHGREEMVKWIEEAFKKFKNLTIEIKHINIIGDKLIFDLHVEFNGKHHQLHLIVTKIDGKWISKSIHVD”, the protease stability score worked out at 1.47.
The result for “DHVEEVVRQMVSHILRDYITGDEKSYASLMDPNMRLHIGDKDSIGREEVLRLIREHTRHLGIKHFHLHDVRIRIQGEYVEIKIDVHLEFNGRKFRVIIHLEMHKVNGRWRLHEETIEIE” reads 2.61; that for “DHVEHEVENVLRKTLHSFLTGDFELLHRLADPHVRSDINGVEIHGWEKLSKWILTLIEQVDHSEFDLKDIRLQGDFVRIHGELILRFNGKHIEIRVQSHVEKIDGRWVIHAVKLK”, 1.11.
The result for “DHVEKEARKFEKLLRHAETTGDEELYLKMIDPNVRIIIGEKNLVGREEVEKWLQTLGVSKVEIRHVEEKDIEIDEDHIRIHGRIIGRYNGKERDFEKHIIVQKIDGKWVLHTEEIR” reads 0.385; that for “DHWEELIERALDFHRSLLRTGDPEVLERQADPNAKFVVGDKTLHGRESVSDWMNRVKNIQIHMRDLHVIDGKIEMHVQMHYDGRTSHTRLIADKVDGRWIYRSVSVE”, 0.69.
With “DHWEHVERMYSHEVLHMLETGDEHKFNKLMDPNARIDVGEWDLIGMHRVSHALKEVRDELGIKHSEVKHVDIFNGRVEIHTEVHVDGRSHKVRIEVIYVNGRTKWMRYEQH” the figure was 0.717.
For the sequence “DIEERDAEEAVRRWLHFLQTGDEDWLREQLDPNTRIDIDGREIHGMEEVVNVLLRESRHLGVDVLSFELRHVDRQGDKIIVYGRIRLRVNGRDTEIEVILYMVKVNGVWLMKSMEFR”, the protease stability score stood at 1.89.
With “DKDDHDFERVLRIFIESIRTGDEDSIRRLADPSVKHVVNGKEFHGREDWEEMIRRIDHIRDFELKSVSIYNGKIEVDGVLTGIFNGREDKTHVHIIMMKVNGRWYIKSWELK”, the protease stability score came out at 1.93.
The result for “DKDEDDERKAIDTLVDVLRTGDEHTLQRLLDPNVQLHIGDKRHHGRDEVIRVLHELHRRLGVTRVEVEIQEYHMVDGQIDLRVHLKYGDKTIESEFVLYKVNGRWFVKSLHFK” reads 2.24; that for “DKDEEDLRHVLHLLSRAFMTGDEDELTKLMDPDVRIYYGDKRLHGREEVTRWIREIRAWVHDSKIRHIRRQGEKIILHGEMDMIFDQGDKEVRTRTEITIHTTKINGRWLLNELELR”, 2.6; that for “DKDEKETKDAIHILLHVARTGDERLLNTLFDPDVKLEVGDKSHHGRETITKVWKDWFHEWRIRDVTYHHVESQGDKIHVDLRIDGIFDGQRTHIESHNVLLKVNGQWLLRREVVH”, 0.512.
With “DKDERMRNEAFKITEHLHHTGDWHTRSRLADPEVQLIIGDKEYHGRETASEVLHKYLKRLGVDHLELKHFEVKMFDGQLHIHLHIELHINGVIYEVHIHIVMEKINGRWVIKHERIEFR” the figure was 1.01.
With “DKEDEDIKHLVDRIIHFWETGDFESLLKNVDPNARVEEIFNGKKYHSHGREEFERTLQEWLDRYKNVTIHIREVRMFNGVAIIHAELLIGDKRHEVHLHWFIYDGVLRHVRIQFE” the figure was 1.49; with “DKEDEDMERIVKEFLHLHLTGDWKLMAELLDPDVRVEFDGKRYHGRENWSKLLEDEFRRIKNATIRIEIKHIDLQGDFARSEVVLHIIVNGVEHRHEMQIDMKVVNGRIHSIRIVRV”, 1.47; with “DKEDEEAKRLLEIFITHHLTGDEEHYQTLMDPHARLDFDGRHNVGREKITEFLRRFGADHVHIKHIEVELYNGKLYVRIEVELRIGDKTMDMIWVLQLRKVDGRWHIRRETWILL”, 0.703.
Sequence “DKEDEERKRWEERMLQAITTGDEKTLEDLIDPNARYEINGRERHGREDLLKEFSKIKNVRIELRIHHVRFYDGQLEIDLRLILHIDGVDLRHETRIHAQKYDGVWYIKDITFH” showed a protease stability score of 1.02.
With “DKEDREAHFLARLFLKIEETGDEETMHKYFDPHVRWIQGDWHMHGREDIIEFVRHMGVTIQMHDHEDIKVFDGRVQIKGHKRVNINGKQFEISVRIDINVINGRIRKVQIDEK” the figure was 1.32.
The result for “DKEEDEFRKAFEIVRHTWKTGDEHLLEKLMDPDARMDVNGVHNHGREEATKTVFEIVEKIKNARLEFKRIEVYDGRIFFHMDWDVNGVRVFVLIISIKVDGRWRHKSYSEDRV” reads 0.856.
With “DKEEEDSDEALKWFFDVLRTGDERLIREMLDPDARIEIDGVPSHGRESVEEFVHRIRNMKVDDFQVKRIDVQGDKVRLDTHFDGTINGVRRQVDLTIIARKINGRWFNESISIK” the figure was 1.91; with “DKEEEDVKKFTDEFIHHYLTGDWEKIRELADPNVRLIVGDKTLHGRELFIDWLRDELRRIDHIEHHVHRMSVINGKVHIDAELRIYINGRLHQTRIEIHLVIIDGRMRMVELRFR”, 2.13; with “DKEEEEVREALRILLEEWHTGDFDRILDLFDPNDRMHIGDKDLHGRHIMEHFYDHMIKRVKNMRIELTDVRFQGDKVWFHVKEHFDGRTISSEIVLVKINGKWRIETIFII”, 1.46.
With “DKEEEHMREMVRLYQHIRLTGNEEVIRNLADPTMRFDLDFEEKRVTAIGREQYLRVTDKLKKDLGLENIEVRVKEMEAFDGVIHINGHERFNGRSYDTHIWLVIVNGRWEFIRIEIR”, the protease stability score came out at 0.116.
The result for “DKEEEKSREFFRIFYELWLTGNEELNERLADPNVYVDINGQEIHGMHVAKNVLTRELEELRVKDIKIDDYKTQGEKAVFHGKWEGYVDGRDSMEHVTVILTVVDGKVDNMSIKFD” reads 0.97.
With “DKEEELIRELMEQFTHWLITGNWKKIVDMADPNVQILYNGQEFHGREELHKALQELLEKLGFKHIEIRRKHVVDGRVHLDGRSIINGRRFEVEYISVIINGVIKEIELRVE” the figure was 1.95.
